According to publication PMC11025796:

Key:
[1] = target: HrGH45, endogenous glycosylated GH45 endo-1,4-β-D-glucanase from the red abalone (Haliotis rufescens) (Haliotis rufescens); test: SEC; calibrated gel filtration on an Agilent Bio SEC-3 HPLC column; 0.1 mg/mL HrGH45 in buffer A (50 mM sodium acetate pH 6.0, 200 mM NaCl, 1 mM EDTA, 0.05% NaN3), 1 mL/min; mass in solution compared with the MALDI-TOF mass of the monomer
[2] = target: HrGH45, endogenous glycosylated GH45 endo-1,4-β-D-glucanase from the red abalone (Haliotis rufescens) (Haliotis rufescens); test: zymography (SDS-PAGE without reducing agent or heating, in-gel cellulase activity); 12% SDS-PAGE gel with 0.1% (w/v) CMC in the resolving phase, sample not reduced and not heated; Triton X-100 wash, overnight at 37°C in buffer A, Congo red stain; a second gel stained with Coomassie

HrGH45, endogenous glycosylated GH45 endo-1,4-β-D-glucanase from the red abalone (Haliotis rufescens) (enzyme)
stoichiometry N [1]: 3 | stoichiometry N [2]: 3
